The source of these data is US11856945B2, “Methods and systems for preparing and preserving a biological sample” (Washington University, priority 2017, dated 2024).

Holding throughout (assay type): physicochemical
Series [1] can be described thus: Recovery/elution of NGAL from ZIF-8 crystals and paper substrates (ELISA). The note with it: dried on paper, recovered immediately after drying; spiked NGAL amount = 100%. An excerpt: Preliminary experiments for investigating optimal buffer to dissolve NGAL embedded ZIF-8 crystals. To completely dissolve the crystals, the final pH of the system needs to be at or below 6.0 to ensure the complete release of NGAL from ZIF-8 encapsulation. For example, in the #4 composition (0.1 M phosphate buffer at pH 6.0), the crystals cannot be completely dissolved and this leads to incomplete recovery 60%, FIG. 8). Although the initial pH of the buffer is 6.0, the basic nature of ZIF-8 precursor residue in the system increases the pH of the buffer to 6.2, leading to incomplete release and recovery.
Left bar: Recovery percentage of ZIF-8 encapsulated NGAL dried on paper using the optimized elution buffer (#9 composition, 0.2 M PBS at pH=5.6 with 2 mM EDTA and 0.1% Tween 20). Middle bar: Recovery percentage of ZIF-8 encapsulated NGAL dried on paper using the #4 composition elution buffer (0.1 M PBS at pH=6 and 0.1% Tween 20). Right bar: Recovery percentage of NGAL alone dried on paper using the conventional elution buffer recipe (PBS at pH=7.4 with 0.1% Tween 20). The samples were recovered immediately after drying. 1 ml elution buffer was used to elute each paper strip. The spiked NGAL amount was set as the reference (100% recovery).
Protein recovery. […]
On the technique in general: An ELISA detects its analyte on a solid surface through an enzyme-linked reagent.

Series [2] can be described thus: NGAL encapsulation efficiency in ZIF-8 crystals (ELISA of supernatant). The method, then: To quantify the encapsulation efficiency, the supernatant after crystals centrifugation was collected and remaining NGAL concentration was determined using sandwich enzyme-linked immunosorbent assay (ELISA). […] The encapsulation efficiency was calculated by subtracting the remaining NGAL amount in the supernatant after encapsulation and centrifugation (concentration measured by ELISA) from the total NGAL amount.
Characterization. To characterize protein-embedded crystals, crystals were centrifuged and washed with DI water twice (8 k r.p.m. for 20 minutes). To calculate the encapsulation efficiency, the supernatant after first centrifugation was collected and assayed by ELISA. SEM images were obtained using a FEI Nova 2300 field-emission scanning electron microscope at an acceleration voltage of 10 kV. Fourier transform infrared spectroscopy (FTIR) measurements were conducted using a Nicolette Nexus 470 spectrometer. The Raman spectra were obtained using a Renishaw inVia confocal Raman spectrometer mounted on a Leica microscope with a 50× objective and a 514 nm wavelength diode laser as an illumination source. The X-ray diffraction (XRD) measurements of the samples were recorded on a Bruker D8-Advance X-ray powder diffractometer using Cu Kα radiation (λ=1.5406 Å).

Series [3] in a line: Preservation of NGAL spiked in artificial urine dried on paper (ELISA). The method, then: The efficacy was evaluated of ZIF-8 encapsulation in preserving NGAL upon exposure to harsh conditions (such as elevated temperatures) that would normally lead to protein denaturation and loss of biospecimen integrity. NGAL-spiked artificial urine dried on paper substrates, both with and without ZIF-8 encapsulation, was stored at 25, 40, or 60° C. for 1 week. Before analysis, the optimized elution buffer (0.2 M phosphate buffer at pH 5.6+Tween 20+EDTA, see Table 1 and FIGS. 8 and 9 for details) was used to elute NGAL from the paper substrates.
The slightly acidic environment (at or below pH 6) was employed to dissociate ZIF-8 crystals and release encapsulated NGAL via breaking coordination between the zinc ions and imidazolate. ZIF-8 encapsulated NGAL dried on the paper was almost fully eluted (>95%) whereas NGAL alone dried on the paper was only partially eluted (˜75%) (FIG. 9). It is important to note that ZIF-8 encapsulation prevented irreversible adsorption of proteins on the cellulose fibers by creating a crystal interface between the protein and paper substrate. […] NGAL concentration was tested by ELISA when NGAL was spiked in four different media. The same concentration of NGAL in phosphate-buffered saline (PBS) at pH 7.4 was set as the reference (100%). […] After storage and elution, the concentration of NGAL in the eluate was quantified using the NGAL sandwich ELISA. The preservation efficacy (preservation %) was calculated by comparing the NGAL amount in the eluate to the spiked NGAL amount in the artificial urine. […] NGAL added on a paper card was stored at 25, 40 or 60° C. for one week. […] The eluates were obtained by eluting paper cards dried with NGAL-spiked artificial urine with or without MOF encapsulation after storage at 40° C. for 1 week.
The preservation efficacy critically depended on the concentrations of 2-methylimidazole and zinc acetate (FIG. 14). […] The maximal preservation percentage was obtained using 160 mM of 2-methylimidazole and 40 mM of zinc acetate. […] A low preservation was noted upon using 40 mM 2-methylimidazole with 10 mM zinc acetate, which is attributed to incomplete encapsulation of NGAL under this condition (˜70% encapsulation of NGAL using 40 mM 2-methylimidazole with 10 mM zinc acetate, FIG. 7). Subsequently, using the optimal ZIF-8 precursor concentration (160 mM 2-methylimidazole and 40 mM zinc acetate), the storage time was extended under different temperatures up to 4 weeks (FIG. 11B). […] Different dried paper strips were sampled at selected time points (2, 3 or 4 weeks) to monitor possible changes in NGAL preservation. With ZIF-8 encapsulation, over 70% of NGAL on paper was preserved up to 4 weeks (the maximum time tested) at all three temperatures (25, 40 and 60° C.), as opposed to 20% preservation on samples without ZIF-8 encapsulation. […] Remarkably, 70% of NGAL on paper could be preserved within 4 weeks at 60° C., which represented an extremely harsh storage condition (a surrogate for long-term storage stability at room temperature).
Sample preparation. NGAL-spiked artificial urine (50 μg/ml of NGAL, 25 μl) or patient urine (25 μl) was first mixed with 2-methylimidazole aqueous solution (12.5 μl) and then zinc acetate dihydrate aqueous solution (12.5 μl). The final concentrations of 2-methylimidazole after mixing were 320 mM, 160 mM, 80 mM and 40 mM. The final concentrations of zinc acetate dihydrate after mixing were 80 mM, 40 mM, 20 mM and 10 mM. […]

B1: neutrophil gelatinase-associated lipocalin (protein, UniProt P80188 21-198, looked up)
Neutrophil …: QDSTSDLIPAPPLSKVPLQQNFQDNQFQGKWYVVGLAGNAILREDKDPQKMYATIYELKEDKSYNVTSVLFRKKKCDYWIRTFVPGCQPGEFTLGNIKSYPGLTSYLVRVVSTNYNQHAMVFFKKVSQNREYFKITLYGRTKELTSELKENFIRFSKSLGLPENHIVFPVPIDQCIDG
notes: urinary biomarker for acute kidney injury; human recombinant
Take B1: in series [1], the “elution from paper substrate” value is on record as about 75%. In addition, the “encapsulation of NGAL” value in series [2] (40 mM 2-methylimidazole with 10 mM zinc acetate) was about 70%. The “encapsulation efficiency of NGAL” value in series [2] (NGAL spiked in artificial urine, 40 mM zinc acetate and 160 mM 2-methylimidazole) is recorded as about 95%; in series [2] (control: mixing NGAL-spiked artificial urine with pure pre-formed ZIF-8 crystals (physical adsorption)) it was about 10%. Moreover, the NGAL preservation result is reported as “less than 30%” in series [3] (paper card, 25° C., 1 week); “less than 30%” in series [3] (paper card, 40° C., 1 week); 20% in series [3] (paper, 25° C., up to 4 weeks, 160 mM 2-methylimidazole and 40 mM zinc acetate); 20% in series [3] (paper, 40° C., up to 4 weeks, 160 mM 2-methylimidazole and 40 mM zinc acetate); 20% in series [3] (paper, 60° C., up to 4 weeks, 160 mM 2-methylimidazole and 40 mM zinc acetate).
